± gives the uncertainty stated by the source.
B1: SAM and SH3 domain-containing protein 1, residues 630 to 700; numbered along this chain, O94885 (parent)
chain: GRPPQPKSVEDLLDRINLKEHMPTFLFNGYEDLDTFKLLEEEDLDELNIRDPEHRAVLLTAVELLQEYDSN

Variants of: B1
Experiment: abundance fitness (aPCA) (normalised: wild type 0, dead -1); higher = more abundant; growth selection in yeast, the domain comes from the species named
Details: Homo sapiens

Abundance fitness of substitutions, site by site:
G29: C -1.12 ± 0.13, D -0.837 ± 0.1, E -0.844 ± 0.1, S -0.834 ± 0.059, L -0.907 ± 0.063, I -0.893 ± 0.1, F -1.2 ± 0.14, V -1.17 ± 0.089, Q -0.959 ± 0.093, P -0.967 ± 0.08, N -0.762 ± 0.09, K -0.925 ± 0.11, W -0.937 ± 0.11, Y -0.895 ± 0.1, A -0.806 ± 0.062, H -0.831 ± 0.081, M -0.739 ± 0.089, T -0.917 ± 0.073
L33: K -1 ± 0.13, Y -1.15 ± 0.12, I -0.187 ± 0.056, R -0.926 ± 0.068, Q -0.73 ± 0.11, A -0.883 ± 0.087, V -0.607 ± 0.058, N -0.764 ± 0.081, D -0.76 ± 0.092, M -0.64 ± 0.084, S -0.812 ± 0.066, E -0.962 ± 0.14, P -0.896 ± 0.095, T -0.828 ± 0.08, C -0.881 ± 0.11, W -1.19 ± 0.17, H -0.791 ± 0.083, F -0.697 ± 0.087
D34: T -0.415 ± 0.043, C -0.468 ± 0.061, H -0.426 ± 0.049, Y -0.679 ± 0.059, K -0.291 ± 0.054, S -0.158 ± 0.035, P -0.664 ± 0.056, M -0.518 ± 0.058, V -0.719 ± 0.055, L -0.67 ± 0.045, A -0.145 ± 0.04, R -0.465 ± 0.045, E 0.041 ± 0.048, W -0.704 ± 0.082, Q -0.116 ± 0.048, N -0.123 ± 0.041, I -0.793 ± 0.067
F27: Q 0.393 ± 0.043, P -0.655 ± 0.061, H 0.246 ± 0.042, S 0.406 ± 0.032, L 0.346 ± 0.031, N 0.418 ± 0.04, T 0.341 ± 0.036, W -0.449 ± 0.054, G 0.166 ± 0.039, V 0.235 ± 0.037, I 0.157 ± 0.045, M 0.327 ± 0.041, K 0.507 ± 0.04, Y 0.122 ± 0.045, R 0.38 ± 0.033
E31: L -0.37 ± 0.036, A 0.207 ± 0.033, W -0.248 ± 0.049, T 0.251 ± 0.033, Y -0.124 ± 0.042, Q 0.029 ± 0.044, G 0.313 ± 0.035, I -0.288 ± 0.049, S 0.196 ± 0.032, K 0.124 ± 0.045, D 0.129 ± 0.042, M -0.158 ± 0.046, H 0.195 ± 0.038, N 0.171 ± 0.04, V -0.003 ± 0.035, R 0.127 ± 0.032, P -0.15 ± 0.039
F36: R -0.794 ± 0.058, A -0.717 ± 0.067, Q -0.705 ± 0.11, C -0.849 ± 0.087, E -0.678 ± 0.097, P -0.9 ± 0.092, H -0.638 ± 0.081, K -1.19 ± 0.14, N -0.719 ± 0.091, G -0.642 ± 0.064, L -0.365 ± 0.043, I -0.531 ± 0.069, M -0.354 ± 0.063
Y30: R -0.891 ± 0.068, L -0.557 ± 0.049, G -0.987 ± 0.076, I 0.042 ± 0.043, H -0.737 ± 0.071, C -0.704 ± 0.076, S -0.706 ± 0.052, W -0.012 ± 0.054, M -0.568 ± 0.074, A -0.92 ± 0.076, E -0.515 ± 0.092, P -0.767 ± 0.081, T -0.906 ± 0.07, D -0.705 ± 0.077, K -0.901 ± 0.099, F 0.058 ± 0.044, N -0.833 ± 0.08
D32: V -0.788 ± 0.06, T 0.172 ± 0.036, H -0.187 ± 0.048, Q -0.382 ± 0.047, G -0.585 ± 0.055, F -0.803 ± 0.092, W -0.75 ± 0.069, M -0.682 ± 0.06, K -0.197 ± 0.05, I -0.568 ± 0.079, R -0.268 ± 0.038, N -0.085 ± 0.049, C -0.292 ± 0.055, A -0.579 ± 0.056, Y -0.776 ± 0.07, L -0.767 ± 0.046, S 0.094 ± 0.033, E -0.275 ± 0.055
N28: C -0.582 ± 0.065, M -0.687 ± 0.081, S -0.395 ± 0.039, V -0.939 ± 0.076, R -0.607 ± 0.049, D -0.812 ± 0.091, I -1.08 ± 0.11, F -0.426 ± 0.062, T -0.831 ± 0.069, P -0.856 ± 0.075, E -0.647 ± 0.098, L -0.855 ± 0.058, K -0.426 ± 0.064, A -0.006 ± 0.04, Y -0.208 ± 0.048, W -0.553 ± 0.071, H 0.109 ± 0.041, G -0.157 ± 0.043, Q -0.644 ± 0.077
T35: A 0.067 ± 0.042, M -0.312 ± 0.059, E -0.211 ± 0.067, V -0.492 ± 0.056, N -0.159 ± 0.049, H 0.022 ± 0.047, F -0.911 ± 0.099, S 0.104 ± 0.035, C -0.206 ± 0.053, G -0.442 ± 0.062, W -0.973 ± 0.12, D 0.108 ± 0.051, L -0.515 ± 0.047, R 0.135 ± 0.037, Y -0.587 ± 0.064

Source: the Human Domainome abundance scans (Beltran et al. 2025)
